Reference: patent US20150125431A1 (ZEALAND PHARMA A S, published 2015)
Non-standard residues stand in square brackets, D forms with d. Aib = CC(C)(N)C(=O)O

Key:
Assay in all cases: cell-based or functional assay
[1] = target: human GLP-2 receptor (hGLP2-R), splice variant rs17681684 (human) (UniProt O95838)
[2] = target: human glucagon-like peptide 1 receptor (GLP-1R) (human, UniProt P43220 24-463)
[3] = target: T1, human GLP-2 receptor (hGLP2-R), splice variant rs17681684 (human, UniProt O95838 1-553)
T1 sequence (looked up): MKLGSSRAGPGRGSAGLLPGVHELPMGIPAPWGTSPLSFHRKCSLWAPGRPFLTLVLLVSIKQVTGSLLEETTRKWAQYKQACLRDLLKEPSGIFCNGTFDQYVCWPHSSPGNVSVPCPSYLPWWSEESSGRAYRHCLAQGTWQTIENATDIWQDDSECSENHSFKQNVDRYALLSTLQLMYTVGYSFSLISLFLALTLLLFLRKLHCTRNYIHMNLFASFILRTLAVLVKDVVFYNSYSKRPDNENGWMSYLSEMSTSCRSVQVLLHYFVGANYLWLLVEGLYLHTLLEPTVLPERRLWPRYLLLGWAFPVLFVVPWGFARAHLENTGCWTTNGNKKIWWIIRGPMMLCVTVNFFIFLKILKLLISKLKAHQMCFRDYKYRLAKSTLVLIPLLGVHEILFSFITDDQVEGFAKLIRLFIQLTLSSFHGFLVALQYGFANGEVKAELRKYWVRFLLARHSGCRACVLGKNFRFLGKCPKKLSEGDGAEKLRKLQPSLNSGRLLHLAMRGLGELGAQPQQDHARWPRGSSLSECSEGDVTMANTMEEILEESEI

Molecule “GLP-1 (from UniProt P01275 98-127) (peptide)” has a GLP-2R EC50 (nM), cAMP AlphaScreen on HEK293 cells expressing the receptor [1] of over 1000 nM.

With H-HGDGSFSDEMNTILDNKAARDFINWLIQTKITD-OH [Compound 2: Hy-HGDGSFSDEMNTILDNKAARDFINWLIQTKITD-OH] the “GLP-1R EC50 (nM), cAMP AlphaScreen on HEK293 cells expressing the receptor” value (“GLP-1R EC50 (nM), cAMP AlphaScreen” below) [2] was 77 nM and the “GLP-2R EC50 (nM), cAMP AlphaScreen on HEK293 cells expressing the receptor” value (from here on “GLP-2R EC50 (nM), cAMP AlphaScreen”) [3] was 0.02 nM.

With H-HGDGSFSSEMNTILDSQAARDFINWLIQTKITD-OH [Compound 4: Hy-HGDGSFSSEMNTILDSQAARDFINWLIQTKITD-OH] the “GLP-1R EC50 (nM), cAMP AlphaScreen” value [2] was 25 nM and the “GLP-2R EC50 (nM), cAMP AlphaScreen” value [3] was 0.06 nM.

For H-HGEGTFTSDLSKQMEGQAVRDFIEWLIQTKITD-OH [Compound 5: Hy-HGEGTFTSDLSKQMEGQAVRDFIEWLIQTKITD-OH], the “GLP-1R EC50 (nM), cAMP AlphaScreen” value [2] was 1 nM and the “GLP-2R EC50 (nM), cAMP AlphaScreen” value [3] was 0.2 nM.

For H-HGEGTFTSDLSKQMESKAARDFIEWLIQTKITD-OH [Compound 6: Hy-HGEGTFTSDLSKQMESKAARDFIEWLIQTKITD-OH], the “GLP-1R EC50 (nM), cAMP AlphaScreen” value [2] was 1.1 nM.

For H-HGDGSFSSELATILDGKAARDFINWLIQTKITD-OH [Compound 7: Hy-HGDGSFSSELATILDGKAARDFINWLIQTKITD-OH], the “GLP-1R EC50 (nM), cAMP AlphaScreen” value [2] was 0.78 nM and the “GLP-2R EC50 (nM), cAMP AlphaScreen” value [3] was 0.2 nM.

H-HGEGTFTSDLSTILENKAARDFIEWLIQTKITD-OH [Compound 8: Hy-HGEGTFTSDLSTILENKAARDFIEWLIQTKITD-OH] was tested, and the “GLP-1R EC50 (nM), cAMP AlphaScreen” value [2] was 16 nM and the “GLP-2R EC50 (nM), cAMP AlphaScreen” value [3] was 0.008 nM.

H-HGEGSFSSDLSTILENKAARDFIEWLIQTKITD-OH [Compound 9: Hy-HGEGSFSSDLSTILENKAARDFIEWLIQTKITD-OH] was tested, and the “GLP-1R EC50 (nM), cAMP AlphaScreen” value [2] was 9.1 nM and the “GLP-2R EC50 (nM), cAMP AlphaScreen” value [3] was 0.2 nM.

B1: Compound 10: Hy-H-Aib-DGSFSDELNTILDGKAARDFINWLIQTK-NH2 (peptide)
peptide: H-H[Aib]DGSFSDELNTILDGKAARDFINWLIQTK-NH2
SMILES: CC[C@H](C)[C@H](NC(=O)[C@H](Cc1ccccc1)NC(=O)[C@H](CC(=O)O)NC(=O)[C@H](CCCNC(=N)N)NC(=O)[C@H](C)NC(=O)[C@H](C)NC(=O)[C@H](CCCCN)NC(=O)CNC(=O)[C@H](CC(=O)O)NC(=O)[C@H](CC(C)C)NC(=O)[C@@H](NC(=O)[C@@H](NC(=O)[C@H](CC(N)=O)NC(=O)[C@H](CC(C)C)NC(=O)[C@H](CCC(=O)O)NC(=O)[C@H](CC(=O)O)NC(=O)[C@H](CO)NC(=O)[C@H](Cc1ccccc1)NC(=O)[C@H](CO)NC(=O)CNC(=O)[C@H](CC(=O)O)NC(=O)C(C)(C)NC(=O)[C@@H](N)Cc1c[nH]cn1)[C@@H](C)O)[C@@H](C)CC)C(=O)N[C@@H](CC(N)=O)C(=O)N[C@@H](Cc1c[nH]c2ccccc12)C(=O)N[C@@H](CC(C)C)C(=O)N[C@H](C(=O)N[C@@H](CCC(N)=O)C(=O)N[C@H](C(=O)N[C@@H](CCCCN)C(N)=O)[C@@H](C)O)[C@@H](C)CC
B1 was tested, and the “GLP-1R EC50 (nM), cAMP AlphaScreen” value [2] was 0.03 nM and the “GLP-2R EC50 (nM), cAMP AlphaScreen” value [3] was 3.9 nM.

In the case of H-HGDGSFSSELATILDGQAARDFIAWLIQTKITD-OH [Compound 11: Hy-HGDGSFSSELATILDGQAARDFIAWLIQTKITD-OH], the “GLP-1R EC50 (nM), cAMP AlphaScreen” value [2] is reported as 0.34 nM and the “GLP-2R EC50 (nM), cAMP AlphaScreen” value [3] is reported as 0.2 nM.

H-HGEGSFSSDLSTILEGKAARDFIEWLIQTKITD-OH [Compound 13: Hy-HGEGSFSSDLSTILEGKAARDFIEWLIQTKITD-OH] was tested, and the “GLP-1R EC50 (nM), cAMP AlphaScreen” value [2] was 18 nM and the “GLP-2R EC50 (nM), cAMP AlphaScreen” value [3] was 0.1 nM.

B2: Compound 1: Hy-H-Aib-DGSFSDEMNTILDNQAARDFINWLIQTKITD-OH (peptide)
peptide: H-H[Aib]DGSFSDEMNTILDNQAARDFINWLIQTKITD-OH
SMILES: CC[C@H](C)[C@H](NC(=O)[C@H](Cc1ccccc1)NC(=O)[C@H](CC(=O)O)NC(=O)[C@H](CCCNC(=N)N)NC(=O)[C@H](C)NC(=O)[C@H](C)NC(=O)[C@H](CCC(N)=O)NC(=O)[C@H](CC(N)=O)NC(=O)[C@H](CC(=O)O)NC(=O)[C@H](CC(C)C)NC(=O)[C@@H](NC(=O)[C@@H](NC(=O)[C@H](CC(N)=O)NC(=O)[C@H](CCSC)NC(=O)[C@H](CCC(=O)O)NC(=O)[C@H](CC(=O)O)NC(=O)[C@H](CO)NC(=O)[C@H](Cc1ccccc1)NC(=O)[C@H](CO)NC(=O)CNC(=O)[C@H](CC(=O)O)NC(=O)C(C)(C)NC(=O)[C@@H](N)Cc1c[nH]cn1)[C@@H](C)O)[C@@H](C)CC)C(=O)N[C@@H](CC(N)=O)C(=O)N[C@@H](Cc1c[nH]c2ccccc12)C(=O)N[C@@H](CC(C)C)C(=O)N[C@H](C(=O)N[C@@H](CCC(N)=O)C(=O)N[C@H](C(=O)N[C@@H](CCCCN)C(=O)N[C@H](C(=O)N[C@H](C(=O)N[C@@H](CC(=O)O)C(=O)O)[C@@H](C)O)[C@@H](C)CC)[C@@H](C)O)[C@@H](C)CC
B2 was tested, and the “GLP-1R EC50 (nM), cAMP AlphaScreen” value [2] was 44 nM and the “GLP-2R EC50 (nM), cAMP AlphaScreen” value [3] was 0.12 nM.
